In patent CN111518208A (QICHEN BAITAI BEIJING MEDICAL TECH CO LTD, dated 2020):
Residue numbers refer to the chain shown, from its start.

B1: 抗人CD47单克隆抗体A3 (antibody, V domains shown)
VH: QVQLQQPGAELVRPGASVKLSCKASGHTFTNYWMNWIKQRPEQGLEWIGNIDPYDSETHYNQKFKDKAILTVGKSSSTAYMQLSSLTSEDSAVYYCAIWRGYALDYWGQGTSVTVSS
VL: CDVQITQSPSYLAASPGETITINCRASKSISKFLAWYQEKPGKTNNLLIYSGSTLQSGIPSRFSGSGSGTDFTLTISSLEPEDFAMYYCQQHNEYPWTFGGGTKLEIK
B2: 抗人CD47单克隆抗体A2 (antibody, V domains shown)
VH: EVQVQQSGPELVKPGASVKISCKASGYSFTGYFMNWVKQSHGKSLEWIGRINPYNGDTFYNQKFKGKATLTVDKSSSTAHMELLSLTSEDSAVYYCGRGGYGGMDYWGQGTSVTVSS
VL: DVLMTQTPLSLPVSLGDQASISCRSSQSIVHSNGNTYLEWYLQKPGQSPKLLIYKVSNRFSGVPDRFSGSGSGTDFTLKISRVEAEDLGVYYCFQGSHVPYTFGGGTKLEIK
B3: 抗人CD47单克隆抗体A5 (antibody, V domains shown)
VH: EVQLQQSGPELVKPGASMRMSCKASGYSFTGYTMHWVKQSHGTNLEWIGLINPYTGGTNYNQKFKGKATLTLDKSSSTAYMELLSLTSEDFAVYYCARMGLAWFAYWGQGTLVTVSA
VL: B2 VL with L3V, I29L, L38F, E39H, Y92F, F94S, G96S, S97T, I111M
B4: 抗人CD47单克隆抗体A6 (antibody, V domains shown)
VH: QVQLQQSGAELVRPGASVTLSCKASGYSFTDSEMHWVKQTPVYGLEWTGVIDPETGNSAYNQKFKGKATLTADKSSNTAYMELRSLTSEDSAVYYCTRGGVFGYPFDYWGQGTTLTVSS
VL: ENVLTQSPAIMAASLGQKVTMTCSATSSVRSSYLHWYQQKSGASPKPLIHRTSNLASGVPARFSGSGSGTSYSLTISSVEAEDDATYYCQQWRGYPYTFGGGTKLEIK
B5: 抗人CD47单克隆抗体A1 (antibody, V domains shown)
VH: EFQLQQSGPELVKPGASVKMSCKASGYTFTNYVLHWVKQKPGQGLEWIGYFNPYNDDSKYNEKFKGKATLTSDKSSSTAYMELSSLTSEDSAVYYCARGGYYSMDYWGQGTTVTVSS
VL: DVMTQTPLSLPVSLGDQASISCRASQSLAHSNGYTYLQWYLQKPGQSPKLLIYKVSKRFSGVPDRFSGSGSGTDFTLKISRVEAEDLGVYFCSQSTHVPYTFGQGTKVEIK

Target: T1, 人CD47蛋白胞外区融合蛋白(hCD47-ECD-6His) (human, UniProt Q08722 19-139, limits assumed)
T1 construct: extracellular domain; Made in FreeStyle 293F cells, purified on a nickel column; not shown: linker peptide-6His (连接肽-6His)
T1 sequence (Q08722 19-139 limits assumed): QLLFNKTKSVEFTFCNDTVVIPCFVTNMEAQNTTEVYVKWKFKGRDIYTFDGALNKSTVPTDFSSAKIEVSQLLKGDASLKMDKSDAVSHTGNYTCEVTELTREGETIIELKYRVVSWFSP
Test: ELISA, hCD47-ECD-6His coated, goat anti-mouse IgG-HRP

Binder | EC50 [µg/mL]
B1 | 0.01
B2 | 0.007
B3 | 0.016
B4 | 0.01
B5 | 0.016

Target: 细胞膜表面表达的人CD47蛋白 (human, UniProt Q08722 19-323)
Sequence (Q08722 19-323): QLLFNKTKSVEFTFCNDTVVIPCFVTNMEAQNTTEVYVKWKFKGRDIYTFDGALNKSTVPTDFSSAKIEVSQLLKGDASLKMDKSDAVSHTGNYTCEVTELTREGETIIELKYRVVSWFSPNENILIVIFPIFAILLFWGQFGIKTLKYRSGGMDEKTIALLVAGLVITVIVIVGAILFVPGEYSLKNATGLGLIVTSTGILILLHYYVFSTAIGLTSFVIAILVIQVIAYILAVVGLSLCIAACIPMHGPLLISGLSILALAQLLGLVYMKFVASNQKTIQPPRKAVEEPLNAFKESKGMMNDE
Test: cell-based or functional assay

Binder | 促吞噬曲线的EC50值 (ATP法, C57BL小鼠腹腔原代巨噬细胞对Raji细胞的吞噬)
B1 | 0.00391 微克/毫升
B2 | 0.00462 微克/毫升
B3 | 0.00665 微克/毫升
B4 | 0.00568 微克/毫升
B5 | 0.00439 微克/毫升
